The source of these data is PMC5052685, “The RNA-binding protein vigilin regulates VLDL secretion through modulation of Apob mRNA translation”.

The target in this data set is VIGILIN (Homo sapiens, UniProt Q00341 1-1268). The data set is described as follows: EMSA; 10 nM 32P-RNA, 0-10 uM protein, 250 mM KCl, 5 mM MgCl2, 25 mM Tris-HCl pH 7.5, 10% glycerol, 1 mg/ml acetylated BSA, 1.5 uM yeast tRNA, 25 C, 5 min; 1.2% agarose gel, 1x TBE. The note with it: protein: recombinant; tags: His6 (expressed from pETM30-vigilin-His6); label: 5' 32P. (In general: Mobility shift assays separate free from complexed probe on a gel.)
Chain of VIGILIN (Q00341 whole entry): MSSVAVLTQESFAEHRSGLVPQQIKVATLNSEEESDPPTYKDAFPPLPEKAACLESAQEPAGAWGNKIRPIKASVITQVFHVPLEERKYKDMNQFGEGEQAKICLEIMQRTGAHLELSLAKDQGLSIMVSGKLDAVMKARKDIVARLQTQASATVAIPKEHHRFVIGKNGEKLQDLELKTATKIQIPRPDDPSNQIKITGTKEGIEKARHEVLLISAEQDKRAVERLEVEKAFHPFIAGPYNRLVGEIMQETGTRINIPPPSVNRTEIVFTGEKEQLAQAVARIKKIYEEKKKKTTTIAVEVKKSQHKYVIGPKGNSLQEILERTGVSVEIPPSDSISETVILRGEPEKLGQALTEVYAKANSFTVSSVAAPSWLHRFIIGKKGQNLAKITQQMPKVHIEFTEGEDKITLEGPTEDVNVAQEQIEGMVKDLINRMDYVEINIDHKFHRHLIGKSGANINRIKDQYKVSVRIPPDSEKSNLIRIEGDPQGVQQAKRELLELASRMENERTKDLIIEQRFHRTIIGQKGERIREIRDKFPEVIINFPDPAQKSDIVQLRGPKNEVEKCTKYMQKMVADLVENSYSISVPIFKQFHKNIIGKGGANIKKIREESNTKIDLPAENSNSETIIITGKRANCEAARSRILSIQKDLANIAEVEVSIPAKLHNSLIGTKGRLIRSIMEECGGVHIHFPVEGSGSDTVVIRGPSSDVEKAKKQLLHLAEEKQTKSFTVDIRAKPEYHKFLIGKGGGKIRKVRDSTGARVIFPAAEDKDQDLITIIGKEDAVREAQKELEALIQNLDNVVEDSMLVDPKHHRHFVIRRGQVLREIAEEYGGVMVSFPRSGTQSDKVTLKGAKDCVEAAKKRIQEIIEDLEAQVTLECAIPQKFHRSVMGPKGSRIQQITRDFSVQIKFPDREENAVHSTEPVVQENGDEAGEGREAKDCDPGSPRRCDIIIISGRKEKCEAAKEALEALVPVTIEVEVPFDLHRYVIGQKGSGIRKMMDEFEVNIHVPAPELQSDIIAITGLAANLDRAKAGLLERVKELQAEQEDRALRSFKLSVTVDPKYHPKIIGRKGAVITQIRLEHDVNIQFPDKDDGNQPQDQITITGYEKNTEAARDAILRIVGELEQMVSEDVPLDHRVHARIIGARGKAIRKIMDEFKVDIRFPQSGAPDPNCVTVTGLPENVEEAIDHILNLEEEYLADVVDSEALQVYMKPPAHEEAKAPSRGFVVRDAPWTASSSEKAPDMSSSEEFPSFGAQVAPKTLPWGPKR

B1: fetuin-A (Ahsg) binding site WT (ssRNA)
RNA: CUACCUCAAUAAUCAUCUUCUUCAGG
In the case of B1, the binding result is given as “binds”.

B2: Apob binding site WT (ssRNA)
RNA: GAUUUAACUCCACCUACUUCCAGGGC
Regarding B2, the binding result was “binds”.
